Test [1] deals with Concanavalin A (UniProt P02866). Nature of the test: Con A Sepharose affinity chromatography, 100 mg rHA loaded; albumin monomer in eluate by GP-HPLC as percent of load; sample final product.
Test [2] shares this target. Description: Con A Sepharose affinity chromatography, 100 mg rHA loaded; albumin monomer in eluate by GP-HPLC as percent of load; sample PBA flow through & washings.
The target is the same in test [3]. Description: Con A Sepharose affinity chromatography, 100 mg rHA loaded; albumin monomer in eluate by GP-HPLC as percent of load; sample SP-FF2 flow through & washings.
The target is the same in test [4]. Nature of the test: Con A Sepharose affinity chromatography (Con A assay); bound albumin as percent of load.

Take “recombinant human albumin (rHA) from a non-mutant (non-pmt1) Saccharomyces cerevisiae strain, purified by the process of Example 1 (from UniProt P02768 25-609)”: the ConA-binding rHA (% of load) with Concanavalin A [1] was 0.28 % of load; with Concanavalin A [2], 0.55 % of load; with Concanavalin A [3], 0.32 % of load.
For the substance “rHA purified from the Pichia pastoris culture medium in accordance with the process of Example 1 (from UniProt P02768 25-609)”, the content of Con A binding material with Concanavalin A [4] was 0.22 % (w/w).
Same read-out and setting: as for “rHA used to spike the Pichia culture medium (from UniProt P02768 25-609)”, the figure is 0.57 % (w/w).

The record behind these values is patent publication US9555344.
